Data reported in patent US20060292657A1, “Phex substrates and methods using same” (priority 2003, published 2006).
“And” between values parts separate entries of the source, which are not always exact repeats. Identical values can stand only once. Square brackets hold non-standard residues; d marks the D form. Peptide text beside a SMILES is read from it. * marks the point of attachment. EDDnp = O=[N+]([O-])c1ccc(NCCN*)c([N+](=O)[O-])c1; 2Abz = Nc1ccccc1C(=O)O

Experiments:
[1] = target: T1, membrane-bound PHEX (mPHEX) (Homo sapiens, UniProt P78562); assay: Membrane-bound PHEX activity with NEP-specific substrate and inhibitor; type: biochemical; settings: 10 μM substrate, 30 minutes
T1 construct: expressed in transfected cells; host or cells: LLC-PK1 (porcine kidney cells)
T1 sequence (P78562 whole entry): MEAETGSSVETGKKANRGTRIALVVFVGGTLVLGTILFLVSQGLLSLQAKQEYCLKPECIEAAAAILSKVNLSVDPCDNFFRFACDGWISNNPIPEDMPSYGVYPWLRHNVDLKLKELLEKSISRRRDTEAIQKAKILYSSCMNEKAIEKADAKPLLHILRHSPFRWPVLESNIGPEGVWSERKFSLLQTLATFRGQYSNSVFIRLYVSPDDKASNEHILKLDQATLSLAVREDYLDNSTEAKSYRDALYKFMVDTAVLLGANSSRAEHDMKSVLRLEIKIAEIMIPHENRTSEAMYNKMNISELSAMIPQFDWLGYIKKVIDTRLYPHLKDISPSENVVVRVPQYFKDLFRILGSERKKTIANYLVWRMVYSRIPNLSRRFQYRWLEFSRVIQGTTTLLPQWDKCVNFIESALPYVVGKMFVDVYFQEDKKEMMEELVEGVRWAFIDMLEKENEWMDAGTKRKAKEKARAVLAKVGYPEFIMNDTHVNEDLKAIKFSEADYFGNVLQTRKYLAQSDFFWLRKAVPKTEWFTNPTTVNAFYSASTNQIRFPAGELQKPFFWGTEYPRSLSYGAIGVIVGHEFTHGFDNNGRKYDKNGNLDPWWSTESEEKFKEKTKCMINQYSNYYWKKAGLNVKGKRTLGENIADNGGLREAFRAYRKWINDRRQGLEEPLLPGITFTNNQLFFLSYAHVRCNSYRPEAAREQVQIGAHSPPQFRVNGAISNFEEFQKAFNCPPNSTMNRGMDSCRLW
Procedure: (§1) FIG. 4 graphically illustrates the activity of PHEX in the presence of NEP-specific substrate and inhibitor. NEP, secPHEX and membrane-bound PHEX (mPHEX) activities were measured after 30 minutes of incubation in presence of either 10 μM Abz-DRRL-EDDnp (SEQ ID NO:8) (A) or 10 μM Abz-GFSDYK(Dnp)-OH (SEQ ID NO:3) (B). Fluorescence detection (AFU) at γem=420 nm and γex=320 nm was determined as described under the heading “Experimental Procedures” below. When present, thiorphan, a NEP-specific inhibitor, was at a concentration of 10^−6 M. Data are a compilation of three different experiments;
(§2) The activities of membrane-bound PHEX and secPHEX were also compared with the NEP-specific substrate Abz-DRRL-EDDnp (SEQ ID NO:8) (46).

secPHEX = target: T2, secPHEX (Homo sapiens, UniProt P78562); assay: secPHEX activity with NEP-specific substrate and inhibitor; type: biochemical; settings: 10 μM substrate, 30 minutes
T2 construct: pure soluble form of PHEX (secPHEX); made in house
T2 sequence (P78562 46-749 limits assumed): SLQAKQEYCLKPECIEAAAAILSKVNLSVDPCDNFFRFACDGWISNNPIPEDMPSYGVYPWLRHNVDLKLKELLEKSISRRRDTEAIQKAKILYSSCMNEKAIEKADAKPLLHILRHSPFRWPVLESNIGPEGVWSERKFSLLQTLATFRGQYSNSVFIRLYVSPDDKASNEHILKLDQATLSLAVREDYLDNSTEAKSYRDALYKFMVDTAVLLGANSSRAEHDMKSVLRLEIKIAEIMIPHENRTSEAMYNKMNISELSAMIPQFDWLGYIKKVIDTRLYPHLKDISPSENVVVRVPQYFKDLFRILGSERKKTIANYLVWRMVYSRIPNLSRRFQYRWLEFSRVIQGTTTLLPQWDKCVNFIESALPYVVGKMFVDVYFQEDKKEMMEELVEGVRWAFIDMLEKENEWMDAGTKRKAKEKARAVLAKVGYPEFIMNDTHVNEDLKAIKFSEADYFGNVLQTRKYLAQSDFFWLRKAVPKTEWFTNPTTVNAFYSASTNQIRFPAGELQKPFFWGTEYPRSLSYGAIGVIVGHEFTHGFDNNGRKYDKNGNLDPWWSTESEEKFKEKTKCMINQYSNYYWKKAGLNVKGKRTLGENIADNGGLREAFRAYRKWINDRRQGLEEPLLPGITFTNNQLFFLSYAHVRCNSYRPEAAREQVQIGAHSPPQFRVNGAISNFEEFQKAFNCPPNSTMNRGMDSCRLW
Procedure: as §1, §2

Abz-DRRL-EDDnp = target: T3, Abz-DRRL-EDDnp
T3 chain: DRRL

Abz-R441-GLDNEIQ-EDDnp = target: T4, Abz-R441-GLDNEIQ-EDDnp
T4 chain: RGLDNEIQ

Abz-GFSEYK(Dnp)-OH = target: T5, Abz-GFSEYK(Dnp)-OH
T5 chain: GFSEYK

Abz-I232-PSDFEGQ-EDDnp = target: T6, Abz-I232-PSDFEGQ-EDDnp
T6 chain: IPSDFEGQ

Abz-G337-SNDIMGQ-EDDnp = target: T7, Abz-G337-SNDIMGQ-EDDnp
T7 chain: GSNDIMGQ

Abz-T294-HLDTKKQ-EDDnp = target: T8, Abz-T294-HLDTKKQ-EDDnp
T8 chain: THLDTKKQ

Abz-L94-MMDFRGQ-EDDnp = target: T9, Abz-L94-MMDFRGQ-EDDnp
T9 chain: LMMDFRGQ

Abz-GFSDYQ-EDDnp = target: T10, Abz-GFSDYQ-EDDnp
T10 chain: GFSDYQ

Abz-R506-RDDSSEQ-EDDnp = target: T11, Abz-R506-RDDSSEQ-EDDnp
T11 chain: RRDDSSEQ

Abz-D125-HLSDTSTQ-EDDnp = target: T12, Abz-D125-HLSDTSTQ-EDDnp
T12 chain: DHLSDTSTQ

[2] = target: T13, Abz-R175-RHTQSAEDDSERQ-EDDnp
T13 chain: RRHTQSAEDDSERQ

[3] = target: T14, Abz-R175-RHTRSAEDDSERQ-EDDnp
T14 chain: RRHTRSAEDDSERQ

Abz-GFSDYK(Dnp)-NH2 = target: T15, Abz-GFSDYK(Dnp)-NH2
T15 chain: GFSDYK

Abz-L134-ELDSRQ-EDDnp = target: T16, Abz-L134-ELDSRQ-EDDnp
T16 chain: LELDSRQ

Abz-GFSDYK(Dnp)-OH = target: T17, Abz-GFSDYK(Dnp)-OH
T17 chain: GFSDYK

Abz-GFSEYK(Dnp)-NH2 = target: T18, Abz-GFSEYK(Dnp)-NH2
T18 chain: GFSEYK

Abz-S513-SDSGSQ-EDDnp = target: T19, Abz-S513-SDSGSQ-EDDnp
T19 chain: SSDSGSQ

Abz-GP197-QRDSQAQ-EDDnp = target: T20, Abz-GP197-QRDSQAQ-EDDnp
T20 chain: GPQRDSQAQ

Abz-G386-SSDAAEQ-EDDnp = target: T21, Abz-G386-SSDAAEQ-EDDnp
T21 chain: GSSDAAEQ

Abz-N449-EMDSFNQ-EDDnp = target: T22, Abz-N449-EMDSFNQ-EDDnp
T22 chain: NEMDSFNQ

Abz-S212-AEDNSPQ-EDDnp = target: T23, Abz-S212-AEDNSPQ-EDDnp
T23 chain: SAEDNSPQ

Abz-N122-GYDVYHQ-EDDnp = target: T24, Abz-N122-GYDVYHQ-EDDnp
T24 chain: NGYDVYHQ

Abz-A110-WLDSGVQ-EDDnp = target: T25, Abz-A110-WLDSGVQ-EDDnp
T25 chain: AWLDSGVQ

Abz-R76-SEDAGFQ-EDDnp = target: T26, Abz-R76-SEDAGFQ-EDDnp
T26 chain: RSEDAGFQ

CC(C)C[C@H](NC(=O)[C@H](CCCNC(=N)N)NC(=O)[C@H](CCCNC(=N)N)NC(=O)[C@H](CC(=O)O)NC(=O)c1ccccc1N)C(=O)NCCNc1ccc([N+](=O)[O-])cc1[N+](=O)[O-] [Abz-DRRL-EDDnp] (H-[2Abz]DRRL-EDDnp)
hydrolysis of NEP-specific substrate [1]: Neither enzyme hydrolyzed this substrate | hydrolysis of NEP-specific substrate (secPHEX): Neither enzyme hydrolyzed this substrate

B1: human recombinant secPHEX (pure soluble form of PHEX) (protein)
chain: SLQAKQEYCLKPECIEAAAAILSKVNLSVDPCDNFFRFACDGWISNNPIPEDMPSYGVYPWLRHNVDLKLKELLEKSISRRRDTEAIQKAKILYSSCMNEKAIEKADAKPLLHILRHSPFRWPVLESNIGPEGVWSERKFSLLQTLATFRGQYSNSVFIRLYVSPDDKASNEHILKLDQATLSLAVREDYLDNSTEAKSYRDALYKFMVDTAVLLGANSSRAEHDMKSVLRLEIKIAEIMIPHENRTSEAMYNKMNISELSAMIPQFDWLGYIKKVIDTRLYPHLKDISPSENVVVRVPQYFKDLFRILGSERKKTIANYLVWRMVYSRIPNLSRRFQYRWLEFSRVIQGTTTLLPQWDKCVNFIESALPYVVGKMFVDVYFQEDKKEMMEELVEGVRWAFIDMLEKENEWMDAGTKRKAKEKARAVLAKVGYPEFIMNDTHVNEDLKAIKFSEADYFGNVLQTRKYLAQSDFFWLRKAVPKTEWFTNPTTVNAFYSASTNQIRFPAGELQKPFFWGTEYPRSLSYGAIGVIVGHEFTHGFDNNGRKYDKNGNLDPWWSTESEEKFKEKTKCMINQYSNYYWKKAGLNVKGKRTLGENIADNGGLREAFRAYRKWINDRRQGLEEPLLPGITFTNNQLFFLSYAHVRCNSYRPEAAREQVQIGAHSPPQFRVNGAISNFEEFQKAFNCPPNSTMNRGMDSCRLW
substrate hydrolysis (fluorescence) (Abz-DRRL-EDDnp): Neither enzyme hydrolyzed this substrate | Km (Abz-R441-GLDNEIQ-EDDnp): 7 µM | kcat (Abz-R441-GLDNEIQ-EDDnp): 0.03 s⁻¹ | kcat/Km (Abz-R441-GLDNEIQ-EDDnp): 4300 M⁻¹ s⁻¹ | kcat/Km (pseudo first-order conditions) (Abz-GFSEYK(Dnp)-OH): 9000 M⁻¹ s⁻¹ | kcat/Km (pseudo-first order conditions) (Abz-I232-PSDFEGQ-EDDnp): 80000 M⁻¹ s⁻¹ | Km (Abz-G337-SNDIMGQ-EDDnp): 13 µM | kcat (Abz-G337-SNDIMGQ-EDDnp): 0.01 s⁻¹ | kcat/Km (Abz-G337-SNDIMGQ-EDDnp): 800 M⁻¹ s⁻¹ | Km (Abz-T294-HLDTKKQ-EDDnp): 15 µM | kcat (Abz-T294-HLDTKKQ-EDDnp): 0.02 s⁻¹ | kcat/Km (Abz-T294-HLDTKKQ-EDDnp): 1300 M⁻¹ s⁻¹ | Km (Abz-L94-MMDFRGQ-EDDnp): 17 µM | kcat (Abz-L94-MMDFRGQ-EDDnp): 0.8 s⁻¹ | kcat/Km (Abz-L94-MMDFRGQ-EDDnp): 45000 M⁻¹ s⁻¹ | Km (Abz-GFSDYQ-EDDnp): 13.3 µM | kcat (Abz-GFSDYQ-EDDnp): 0.6 s⁻¹ | kcat/Km (Abz-GFSDYQ-EDDnp): 45100 M⁻¹ s⁻¹ | Km (Abz-R506-RDDSSEQ-EDDnp): 5.3 µM | kcat (Abz-R506-RDDSSEQ-EDDnp): 0.5 s⁻¹ | kcat/Km (Abz-R506-RDDSSEQ-EDDnp): 94300 M⁻¹ s⁻¹ | Km (Abz-D125-HLSDTSTQ-EDDnp): 1.3 µM | kcat (Abz-D125-HLSDTSTQ-EDDnp): 0.1 s⁻¹ | kcat/Km (Abz-D125-HLSDTSTQ-EDDnp): 77000 M⁻¹ s⁻¹ | Km [2]: 1.7 µM | kcat [2]: 0.15 s⁻¹ | kcat/Km [2]: 88200 M⁻¹ s⁻¹ | Km [3]: 3 µM | kcat [3]: 0.2 s⁻¹ | kcat/Km [3]: 66700 M⁻¹ s⁻¹ | Km (Abz-GFSDYK(Dnp)-NH2): 53.2 µM | fold decrease in catalytic efficiency against Abz-GFSDYK(Dnp)-OH (Abz-GFSDYK(Dnp)-NH2): a 6-fold decrease in catalytic efficiency due to its low affinity for the enzyme | kcat (Abz-GFSDYK(Dnp)-NH2): 1.3 s⁻¹ | kcat/Km (Abz-GFSDYK(Dnp)-NH2): 24400 M⁻¹ s⁻¹ | Km (Abz-L134-ELDSRQ-EDDnp): 0.9 µM | kcat (Abz-L134-ELDSRQ-EDDnp): 0.05 s⁻¹ | kcat/Km (Abz-L134-ELDSRQ-EDDnp): 55500 M⁻¹ s⁻¹ | Km (Abz-GFSDYK(Dnp)-OH): 3 µM and 5×10^-6 M and 10×10^-6 M, for secPHEX and membrane-bound PHEX, respectively | kcat (Abz-GFSDYK(Dnp)-OH): 0.5 s⁻¹ | kcat/Km (Abz-GFSDYK(Dnp)-OH): 167000 M⁻¹ s⁻¹ | substrate hydrolysis (fluorescence) (Abz-GFSDYK(Dnp)-OH): degradation of the substrate was observed | hydrolysis by PHEX (Abz-GFSEYK(Dnp)-NH2): Resistant | Km (Abz-S513-SDSGSQ-EDDnp): 31.6 µM | kcat (Abz-S513-SDSGSQ-EDDnp): 0.2 s⁻¹ | kcat/Km (Abz-S513-SDSGSQ-EDDnp): 7100 M⁻¹ s⁻¹ | Km (Abz-GP197-QRDSQAQ-EDDnp): 47 µM | kcat (Abz-GP197-QRDSQAQ-EDDnp): 0.2 s⁻¹ | kcat/Km (Abz-GP197-QRDSQAQ-EDDnp): 4300 M⁻¹ s⁻¹ | Km (Abz-G386-SSDAAEQ-EDDnp): 2.4 µM | kcat (Abz-G386-SSDAAEQ-EDDnp): 0.3 s⁻¹ | kcat/Km (Abz-G386-SSDAAEQ-EDDnp): 125000 M⁻¹ s⁻¹ | Km (Abz-N449-EMDSFNQ-EDDnp): 38 µM | kcat (Abz-N449-EMDSFNQ-EDDnp): 0.3 s⁻¹ | kcat/Km (Abz-N449-EMDSFNQ-EDDnp): 7900 M⁻¹ s⁻¹ | Km (Abz-S212-AEDNSPQ-EDDnp): 22 µM | kcat (Abz-S212-AEDNSPQ-EDDnp): 0.3 s⁻¹ | kcat/Km (Abz-S212-AEDNSPQ-EDDnp): 13600 M⁻¹ s⁻¹ | Km (Abz-N122-GYDVYHQ-EDDnp): 9 µM | kcat (Abz-N122-GYDVYHQ-EDDnp): 0.01 s⁻¹ | kcat/Km (Abz-N122-GYDVYHQ-EDDnp): 1100 M⁻¹ s⁻¹ | Km (Abz-A110-WLDSGVQ-EDDnp): 1.5 µM | kcat (Abz-A110-WLDSGVQ-EDDnp): 0.04 s⁻¹ | kcat/Km (Abz-A110-WLDSGVQ-EDDnp): 26700 M⁻¹ s⁻¹ | Km (Abz-R76-SEDAGFQ-EDDnp): 4.1 µM | kcat (Abz-R76-SEDAGFQ-EDDnp): 0.06 s⁻¹ | kcat/Km (Abz-R76-SEDAGFQ-EDDnp): 14600 M⁻¹ s⁻¹
